According to the supplement of paper PMC9732359:
± gives the uncertainty stated by the source.

Assay: protein stability index of a GFP-peptide fusion (yeast GPS) (PSI 1-4); higher = more stable; sorted into four equal gates, so the index is relative within each strain
In short: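 Sequencing reads from sorted gates were used to score each peptide. The library consisted of tiled 17-residue yeast protein peptides fused downstream of GFP on a Cherry-expressing plasmid, pooled and carried in yeast. Mid-log cultures in leucine-free medium were split into four equal gates by GFP/Cherry ratio, and each gate's plasmids were PCR-amplified and Illumina-sequenced. The protein stability index adds up, over all gates, the read frequency multiplied by the gate number.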

Sequence	protein stability index (doa10∆)	protein stability index (pdr5∆)	protein stability index (san1∆)	protein stability index (ubr1∆)
CHLYSQRMHAIHEIDER [NNF1]	1.24 ± 0.082	1.64 ± 0.065	1.8 ± 0.1	1.63 ± 0.073
GVITVHNVFSKEQTIQL [RPN14]	2.57 ± 0.14	2.63 ± 0.19	2.95 ± 0.079	3.12 ± 0.14
YDNEKTAELIKELKEKE [PUP2]	3.27 ± 0.066	3.34 ± 0.087	3.44 ± 0.094	3.31 ± 0.064
LLTSAGCKNGSFTLLNQ [NUT1]	2.21 ± 0.12	2.32 ± 0.067	2.3 ± 0.28	2.68 ± 0.12
MEDIEKIKPYVRSFSKA [LRP1]	2.64 ± 0.062	3 ± 0.05	2.51 ± 0.069	2.74 ± 0.038
DDVKNILNAKYTKETYQ [RPN6]	3.26 ± 0.076	2.99 ± 0.066	3.08 ± 0.052	3.12 ± 0.064
AGFDPRDDEPKLYQTEP [PRE6]	3.24 ± 0.084	3.03 ± 0.12	3.1 ± 0.05	3.24 ± 0.07
EPMKQLNATKISPSAPS [YAR002W/NUP60]	2.73 ± 0.075	2.91 ± 0.083	2.96 ± 0.062	2.77 ± 0.078
WQYYYYTLTEEGVEYLR [RPS10A]	2.58 ± 0.084	2.66 ± 0.072	2.74 ± 0.098	3.21 ± 0.1
QIGQVPLAPAPINLPPQ [SNF5]	2.35 ± 0.08	2.47 ± 0.081	2.4 ± 0.14	2.5 ± 0.079
ALPHVEINQVSLALVIR [RGR1]	1.91 ± 0.12	3 ± 0.22	2.24 ± 0.13	2.71 ± 0.086
NFNSSLHKRQQFSESTH [YJL039C/NUP192]	3.12 ± 0.12	3.14 ± 0.08	2.82 ± 0.063	3.03 ± 0.061
TVFLPMVGLVDPDKLKP [RPT5]	2.77 ± 0.061	2.66 ± 0.079	2.47 ± 0.058	2.44 ± 0.062
LEGNDIHALAAKLLQEN [FAS1]	2.76 ± 0.063	2.95 ± 0.065	2.77 ± 0.051	2.7 ± 0.059
LKNVEETQEIKENDTVM [ESC2]	2.86 ± 0.097	3 ± 0.075	2.92 ± 0.14	3.16 ± 0.074
ITFLQTLYIGNTANGRP [ECM29]	2.04 ± 0.085	2.73 ± 0.09	2.6 ± 0.16	1.97 ± 0.12
MISIIKLVTNVVDPKTS [YML103C/NUP188]	1.84 ± 0.047	1.81 ± 0.045	2.04 ± 0.093	1.67 ± 0.035
TPDATKIKAILESVGIE [RPP2A]	2.31 ± 0.084	3.2 ± 0.16	3.08 ± 0.12	3.18 ± 0.063
KTEPVGTGLQSYLEERE [RPC53]	3.4 ± 0.25	3.24 ± 0.13	3.21 ± 0.12	3.2 ± 0.11
QFSYVDSSMTTVQENEL [AAR2]	2.62 ± 0.044	2.99 ± 0.05	2.98 ± 0.04	2.95 ± 0.052
SIDNDFSEEKAEEFDFN [YAR002W/NUP60]	3.19 ± 0.14	3.02 ± 0.11	3.17 ± 0.092	3.12 ± 0.1
NVKFLRIFISNVSENQP [SNF12]	1.53 ± 0.095	1.63 ± 0.075	2.02 ± 0.075	1.95 ± 0.069
DVNIVNRRLVYSRILKS [YCG1]	1.36 ± 0.1	1.16 ± 0.079	1.38 ± 0.17	1.21 ± 0.059
FDDIFQVSEVDPGRYNK [RPB8]	3.06 ± 0.14	2.75 ± 0.12	2.57 ± 0.18	2.95 ± 0.097
KLNVDQFISSRQFEVKQ [POP1]	2.99 ± 0.053	3.08 ± 0.055	3.01 ± 0.041	2.97 ± 0.059
KSMNKSAINQYNRRQDK [SNF2]	2.26 ± 0.075	2.63 ± 0.082	2.44 ± 0.058	2.48 ± 0.083

Sequence	protein stability index (doa10∆)	protein stability index (pdr5∆)	protein stability index (san1∆)	protein stability index (ubr1∆)
PREDKENNRLLFECRTC [RPB9]	3.29 ± 0.14	3.17 ± 0.13	3.02 ± 0.17	3.29 ± 0.16
SPVYDVDPRIINSENDY [NUT1]	2.92 ± 0.08	3.02 ± 0.074	2.39 ± 0.08	2.76 ± 0.059
GLFPFESYKPSVQLPDM [SWI3]	3.05 ± 0.09	2.88 ± 0.081	2.96 ± 0.067	2.81 ± 0.07
DFDESLKYLDDLKAQFQ [RPN9]	3.02 ± 0.15	3.17 ± 0.075	3.12 ± 0.098	3.11 ± 0.081
VEAGMIALRNGQSSVKH [RPT5]	2.87 ± 0.14	2.9 ± 0.16	2.79 ± 0.11	2.6 ± 0.11
HNKLNITSDALEGITTT [SMC3]	3.19 ± 0.16	3.09 ± 0.15	3.03 ± 0.092	3.1 ± 0.092
KKFGGKGARSRFQKSYR [RPS16A]	3.29 ± 0.12	3.27 ± 0.097	3.27 ± 0.072	3.32 ± 0.079
KELESIDVLLEQTTGGN [RPB4]	–	–	–	3.22 ± 0.26
TPKGNESEQELSLHTGF [MTR3]	3.22 ± 0.11	3.13 ± 0.1	3.18 ± 0.12	3.17 ± 0.061
FISELCSIEPIAAKLIN [YML103C/NUP188]	1.41 ± 0.033	1.34 ± 0.044	1.44 ± 0.077	1.35 ± 0.045
SYPVNGSQKTFEIDDEH [RPS6A]	2.98 ± 0.13	2.72 ± 0.12	2.81 ± 0.12	2.99 ± 0.12
WSKTIKARTNLHQHVVL [RPC34]	2.11 ± 0.1	1.8 ± 0.1	1.71 ± 0.21	2.34 ± 0.064
NGKEVPLAKIYLEENKS [MED1]	3.2 ± 0.1	3.27 ± 0.071	3.12 ± 0.075	3.21 ± 0.063
MKNENANPKKLALMTAH [CDC53]	2.12 ± 0.039	2.33 ± 0.046	2.09 ± 0.048	1.79 ± 0.032
SQTTQLAGMDVEDALDK [FAS2]	3.31 ± 0.094	3.47 ± 0.11	3.31 ± 0.083	3.62 ± 0.071
SKTENVRRLEAQRNALN [RPT6]	2.65 ± 0.17	2.91 ± 0.18	–	2.88 ± 0.074
TTAVDALQKGLKDLMDL [RPC19]	3.58 ± 0.23	2.79 ± 0.26	2.9 ± 0.12	3.02 ± 0.13
YVLRNVLRIPEEYLDAN [MTW1]	2.67 ± 0.12	2.33 ± 0.15	3 ± 0.061	2.82 ± 0.088
DSVLQLASFEKTTDHLF [RPO31]	2.63 ± 0.054	2.64 ± 0.04	2.83 ± 0.06	2.74 ± 0.041
IIAVKGSGSRLNRLPAA [RPL23A]	1.42 ± 0.051	1.17 ± 0.049	1.23 ± 0.099	1.42 ± 0.049
GSKQILKTEAANVLDPS [BRR2]	3.11 ± 0.075	2.99 ± 0.076	3 ± 0.056	3.19 ± 0.067
LQPPKTSSRGRDHKSYS [SMC4]	2.9 ± 0.056	3.21 ± 0.061	3 ± 0.071	2.86 ± 0.049
ALLRSGRLDRKIEFPLP [RPT5]	–	–	–	3.43 ± 0.18
NVKNDVSFNDSQSMVTN [YIL149C/MLP2]	3.1 ± 0.054	3.37 ± 0.081	3.07 ± 0.067	3.3 ± 0.04
FERIMILDPQVTRFTTW [YJL039C/NUP192]	1.06 ± 0.077	1.33 ± 0.073	1.22 ± 0.12	1.23 ± 0.062
TRRFVNVTLVNGKRRMN [RPS30A]	1.67 ± 0.055	1.51 ± 0.038	1.73 ± 0.084	2.37 ± 0.038
